IC50 of neutralisation of SARS-CoV-2 pseudovirus (293T (ACE2) cells) data for five substances are collected here from article PMC7263513.

For assay [1], the target named is SARS-CoV-2 receptor binding domain (RBD) (SARS-CoV-2) (UniProt P0DTC2).
In assay [2] the target is SARS-CoV-2 receptor binding domain (RBD) (Severe acute respiratory syndrome coronavirus 2 (2019-nCoV) (SARS-CoV-2).) (UniProt P0DTC2).

C144 (antibody) had an IC50 of neutralisation of SARS-CoV-2 pseudovirus (293T (ACE2) cells) in assay [1] of 0.00691 µg/mL.

The substance C002 (antibody) showed an IC50 of neutralisation of SARS-CoV-2 pseudovirus (293T (ACE2) cells) in assay [2] of 0.00888 µg/mL.

As for C110 (antibody), the IC50 of neutralisation of SARS-CoV-2 pseudovirus (293T (ACE2) cells) in assay [2] is 0.0184 µg/mL.

C105 (antibody) returned an IC50 of neutralisation of SARS-CoV-2 pseudovirus (293T (ACE2) cells) in assay [2] of 0.0261 µg/mL. Still for that read-out and setting: the same measure for C104 (antibody): 0.0233 µg/mL.
